Target: GST-Nup153 (human wt Nup153) (human)
Test: co-IP; competition: 200 ng P-rC with 200 ng GST-Nup153 and different concentrations of importin β together, 2 h at 37°C in transport buffer; anti-capsid beads; mAb414 blot

importin β (karyopherin) (from UniProt Q14974 1-876) (natural protein)
molar excess of importin β that prevented Nup153 binding to P-rC: > 150 fold

Reference: article PMC2813275
